Data set [1] is described as follows: Thermofluor thermal stability assay (Tm of MGLL protein). In kind it is physicochemical. As to conditions: for Tm (midpoint of the melting transition): 0.05 mg/ml protein, 50 mM Pipes pH 7, 200 mM NaCl, 100 μM 1,8-ANS, 0.001% Tween.
From the text: (§1) Thermofluor® assays detect small changes in the intrinsic melting temperature of proteins based on binding of ligands. Compounds that interact preferentially with the native form of the protein will increase the Tm, the temperature at which half of the protein is unfolded (Pantoliano et al. 2001). The technique monitors changes in the fluorescent intensity of dyes such as 1-anilinonaphthalene-8-sulfonic acid (1,8-ANS). The fluorescent dyes are quenched in aqueous environments but increase in fluorescence on binding to the hydrophobic core of denatured proteins.
as §1, with “The Thermofluor®” for “Thermofluor®”, “assay is a powerful tool to screen for small molecule inhibitors interacting with a protein's active site or allosteric site. The assay detects” for “assays detect”
Thermofluor® assays were conducted to characterize wt-MGLL (hMGLL 1-303) (SEQ ID NO: 3) and mut-MGLL (hMGLL 1-303 L169S, L176S) and evaluate if the MGLL mutants could be used for high-throughput screening using Thermofluor®. Three microliters of protein at a concentration of 0.05 mg/ml in 50 mM Pipes pH 7, 200 mM NaCl, 100 μM 1,8-ANS, and 0.001% Tween was added to pre-dispensed compound plates. Wells were overlaid with silicone oil (1 μL, Fluka, type DC 200) to prevent evaporation. Final compound concentrations varied from 150 to 0.15 μM. Assay plates were heated at a rate of 1° C./min for all experiments over a temperature range sufficient to measure protein unfolding. Fluorescence was measured by continuous illumination with UV light (Hamamatsu LC6) supplied via fiber optic and filtered through a custom band-pass filter (380-400 nm; >60D cutoff). Fluorescence emission was detected by measuring light intensity using a CCD camera (Sensys, Roper Scientific) filtered to detect emission at 500±25 nm, resulting in simultaneous and independent readings of all 384 wells. One or more images were collected at each temperature, and the sum of the pixel intensity in a given area of the assay plate was recorded vs temperature, and fit to standard equations to yield the Tm.
Background: In DSF a fluorescence change marks the thermal transition of the protein.

In data set [2] the test system is MGLL. The data set is described as follows: Kinetic analysis: hydrolysis of 4-methylcoumarin butyrate (4MC-B) by MGLL constructs. As to conditions: substrate 4MC-B; 4-5 nM MGLL, 20 mM Pipes pH 7, 150 mM NaCl, 37° C.; average of 2 or 4 separate assays. In kind it is biochemical, human.
Method: The Michaelis-Menten parameters for the hydrolysis of 4-methylcoumarin butyrate (4MC-B) and coumarin arachidonate (C-A) substrate were determined using 4-5 nM of MGLL in 20 mM Pipes pH 7 and 150 mM NaCl at 37° C. […] The hyperbolic rates versus substrate concentration curves for the hydrolysis of 4MC-B were fit to the Michaelis-Menten equation using Excel.
The nature of data set [3]: Size exclusion chromatography of protein purified in the absence of detergent (aggregation / monomer). In kind it is physicochemical. The procedure: A pilot purification of wt-MGLL (hMGLL 1-303) (SEQ ID NO: 3), performed in the complete absence of detergent, generated no protein (data not shown). A second purification of wt-MGLL (hMGLL 1-303) (SEQ ID NO: 3) was done with detergent in the lysis buffer only. Frozen cell pellets for wt-MGLL (hMGLL 1-303) (SEQ ID NO: 3) were thawed, resuspended, and lysed in Bugbuster® lysis buffer for 1 hour at 4° C. Bugbuster® lysis buffer is a proprietary lysis buffer from […] that contains detergent. The lysate was clarified by centrifugation at 40,000×g for 1 hr. No detergent was added at this point or during the rest of the purification. From this point forward, the purification protocol and buffers were the same as described below for mut-MGLL. An average of 2.2 mg of wt-MGLL (hMGLL 1-303) (SEQ ID NO: 3) per liter of cell culture was obtained.
Mutant MGLL (mut-MGLL) constructs were purified in the absence of detergent. […] Fractions were analysed by SDS-PAGE. […] Purification yields were determined by Bradford assay using the protein assay kit from BioRad according to manufacturer's instruction with BSA as a standard (Bradford 1976).
Background: SEC sorts molecules by how far they enter the pores of the column.

The target of data set [4] is T1, MGLL (Homo sapiens, UniProt Q99685, L169S/L176S).
T1 construct: His tag followed by a TEV cleavage site (N); made in house; host or cells: Sf9 insect cells (baculovirus)
T1 sequence (Q99685 with tags, fused parts or gaps L169S/L176S): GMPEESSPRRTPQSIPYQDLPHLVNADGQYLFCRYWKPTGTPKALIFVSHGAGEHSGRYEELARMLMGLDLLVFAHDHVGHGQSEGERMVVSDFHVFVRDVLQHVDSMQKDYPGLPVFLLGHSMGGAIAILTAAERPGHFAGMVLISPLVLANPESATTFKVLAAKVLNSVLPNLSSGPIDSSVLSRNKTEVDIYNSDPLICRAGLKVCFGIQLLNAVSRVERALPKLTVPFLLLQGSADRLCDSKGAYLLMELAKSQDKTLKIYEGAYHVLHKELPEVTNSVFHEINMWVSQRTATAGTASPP
Briefly: Kinetic analysis: hydrolysis of coumarin arachidonate (C-A) by MGLL constructs. In kind it is biochemical. As to conditions: substrate C-A. An excerpt:
A small fluorescent substrate, 4-methyl coumarin butyrate (4MC-B) was used to compare the activity of the engineered mutants to the activity of wt-MGLL (hMGLL 1-303) (SEQ ID NO: 3). The catalytic efficiency (kcat/KM) for the hydrolysis of the 4MC-B was similar for wt-MGLL (hMGLL 1-303) (SEQ ID NO: 3) and all MGLL mutants tested (Table 2). A larger more aliphatic fluorescent substrate, Coumarin Arachidonate (C-A), structurally more closely related to the MGLL natural substrate, 2-AG, was used to compare the activity of wt-MGLL (hMGLL 1-303) (SEQ ID NO: 3) to TEV cleaved mut-MGLL (hMGLL 1-303 L169S, L176S) (SEQ ID NO: 5).
The Michaelis-Menten parameters for the hydrolysis of 4-methylcoumarin butyrate (4MC-B) and coumarin arachidonate (C-A) substrate were determined using 4-5 nM of MGLL in 20 mM Pipes pH 7 and 150 mM NaCl at 37° C. The change in fluorescence due to substrate hydrolysis was monitored using excitation/emission wavelengths of 335/440 in a Safire II instrument from Tecan. The hyperbolic rates versus substrate concentration curves for the hydrolysis of 4MC-B were fit to the Michaelis-Menten equation using Excel.
The apparent kcat/KM ratio for the hydrolysis of C-A was determined at [S]<<KM. […] The kcat/KM values reported are the average from independent values determined from five substrate concentrations ranging from 700 to 40 nM.

The Km is the substrate concentration at which the rate is half of its maximum.

B1: wt-MGLL.1-303: wild-type human MGLL isoform 2, amino acids 1-303, with N-terminal His tag and TEV site (SEQ ID NO: 3) (protein)
chain: MVDHHHHHHENLYFQGMPEESSPRRTPQSIPYQDLPHLVNADGQYLFCRYWKPTGTPKALIFVSHGAGEHSGRYEELARMLMGLDLLVFAHDHVGHGQSEGERMVVSDFHVFVRDVLQHVDSMQKDYPGLPVFLLGHSMGGAIAILTAAERPGHFAGMVLISPLVLANPESATTFKVLAAKVLNLVLPNLSLGPIDSSVLSRNKTEVDIYNSDPLICRAGLKVCFGIQLLNAVSRVERALPKLTVPFLLLQGSADRLCDSKGAYLLMELAKSQDKTLKIYEGAYHVLHKELPEVTNSVFHEINMWVSQRTATAGTASPP
modifications: N-terminal His tag and TEV site
On to B1, for which, in data set [1], the “quality of the Thermofluor melting transition” value was “very poor transition” and the “Tm (midpoint of the melting transition)” value worked out at 58 °C.

B2: mut-MGLL 1-303, L169S, L176S, K226A: engineered human MGLL 1-303 with L169S, L176S and surface mutation K226A (protein)
chain: MVDHHHHHHENLYFQGMPEESSPRRTPQSIPYQDLPHLVNADGQYLFCRYWKPTGTPKALIFVSHGAGEHSGRYEELARMLMGLDLLVFAHDHVGHGQSEGERMVVSDFHVFVRDVLQHVDSMQKDYPGLPVFLLGHSMGGAIAILTAAERPGHFAGMVLISPLVLANPESATTFKVLAAKVLNSVLPNLSSGPIDSSVLSRNKTEVDIYNSDPLICRAGLKVCFGIQLLNAVSRVERALPALTVPFLLLQGSADRLCDSKGAYLLMELAKSQDKTLKIYEGAYHVLHKELPEVTNSVFHEINMWVSQRTATAGTASPP
For the molecule B2, the Km in data set [2] stood at 110 µM.

B3: mut-MGLL. 1-303, L169S, L176S, K165A: engineered human MGLL 1-303 with L169S, L176S and surface mutation K165A (protein)
chain: MVDHHHHHHENLYFQGMPEESSPRRTPQSIPYQDLPHLVNADGQYLFCRYWKPTGTPKALIFVSHGAGEHSGRYEELARMLMGLDLLVFAHDHVGHGQSEGERMVVSDFHVFVRDVLQHVDSMQKDYPGLPVFLLGHSMGGAIAILTAAERPGHFAGMVLISPLVLANPESATTFKVLAAAVLNSVLPNLSSGPIDSSVLSRNKTEVDIYNSDPLICRAGLKVCFGIQLLNAVSRVERALPKLTVPFLLLQGSADRLCDSKGAYLLMELAKSQDKTLKIYEGAYHVLHKELPEVTNSVFHEINMWVSQRTATAGTASPP
In the case of B3, in data set [2], the Km was 137 µM.

B4: mut-MGLL. 1-303, L169S, L176S, K160A: engineered human MGLL 1-303 with L169S, L176S and surface mutation K160A (protein)
chain: MVDHHHHHHENLYFQGMPEESSPRRTPQSIPYQDLPHLVNADGQYLFCRYWKPTGTPKALIFVSHGAGEHSGRYEELARMLMGLDLLVFAHDHVGHGQSEGERMVVSDFHVFVRDVLQHVDSMQKDYPGLPVFLLGHSMGGAIAILTAAERPGHFAGMVLISPLVLANPESATTFAVLAAKVLNSVLPNLSSGPIDSSVLSRNKTEVDIYNSDPLICRAGLKVCFGIQLLNAVSRVERALPKLTVPFLLLQGSADRLCDSKGAYLLMELAKSQDKTLKIYEGAYHVLHKELPEVTNSVFHEINMWVSQRTATAGTASPP
B4: the Km in data set [2] was determined as 90 µM.

B5: mut-MGLL 1-303, L169S, L176S, K36A, K226A: engineered human MGLL 1-303 with L169S, L176S and surface mutations K36A, K226A (protein)
chain: MVDHHHHHHENLYFQGMPEESSPRRTPQSIPYQDLPHLVNADGQYLFCRYWAPTGTPKALIFVSHGAGEHSGRYEELARMLMGLDLLVFAHDHVGHGQSEGERMVVSDFHVFVRDVLQHVDSMQKDYPGLPVFLLGHSMGGAIAILTAAERPGHFAGMVLISPLVLANPESATTFKVLAAKVLNSVLPNLSSGPIDSSVLSRNKTEVDIYNSDPLICRAGLKVCFGIQLLNAVSRVERALPALTVPFLLLQGSADRLCDSKGAYLLMELAKSQDKTLKIYEGAYHVLHKELPEVTNSVFHEINMWVSQRTATAGTASPP
For B5, in data set [2], the Michaelis-Menten constant (Km) was 123 µM.

B6: mut-MGLL. 1-303, L169S, L176S: engineered human MGLL 1-303 with cap-domain mutations L169S, L176S; SEQ ID NO: 5 after TEV cleavage (protein)
chain: GMPEESSPRRTPQSIPYQDLPHLVNADGQYLFCRYWKPTGTPKALIFVSHGAGEHSGRYEELARMLMGLDLLVFAHDHVGHGQSEGERMVVSDFHVFVRDVLQHVDSMQKDYPGLPVFLLGHSMGGAIAILTAAERPGHFAGMVLISPLVLANPESATTFKVLAAKVLNSVLPNLSSGPIDSSVLSRNKTEVDIYNSDPLICRAGLKVCFGIQLLNAVSRVERALPKLTVPFLLLQGSADRLCDSKGAYLLMELAKSQDKTLKIYEGAYHVLHKELPEVTNSVFHEINMWVSQRTATAGTASPP
As to B6, in data set [1], the “quality of the Thermofluor melting transition” value is “strong transition” and the “Tm (midpoint of the melting transition)” value was 56.7 °C. In addition, the monomer in data set [3] was 90%. Also, in data set [4], the “catalytic efficiency for hydrolysis of C-A compared with wt-MGLL” value is listed as “equivalent”.

Source of the values: patent publication US8080400B2, “Crystal structure of monoacylglycerol lipase (MGLL)” (Janssen Pharmaceutica N.V., priority 2009, dated 2011).
